{"source": "patent US20040091465A1", "about": "“Therapeutic antiangiogenic compositions and methods” (priority 2002, published 2004)", "molecules": {"B1": {"name": "endostatin: 20 kDa inhibitor of endothelial cell proliferation purified from EOMA conditioned media; C-terminal fragment of collagen XVIII NC1 domain (protein, listed as Homo sapiens)", "chain": "HSHRDFQPVLHLVALNSPLSGGMRGIRGADFQCFQQARAVGLAGTFRAFLSSRLQDLYSIVRRADRAAVPIVNLKDELLFPSWEALFSGSEGPLKPGARIFSFDGKDVLRHPTWPQKSVWHGSDPNGRRLTESYCETWRTEAPSATGQASSLLGGRLLGQSAASCHHAYIVLCIENSFMTASK"}, "B2": {"name": "endostatin derived from human: recombinant endostatin from the human sequence, produced in E. coli (protein, listed as Homo sapiens)", "chain": "B1 chain"}}, "key": {"[1]": {"tested_on": "Bovine aortic smooth muscle cells", "assay": "Non-endothelial cell proliferation assay, SMC", "type": "cell-based", "conditions": "72 hours", "experimental": "(§1) Bovine aortic smooth muscle (SMC), bovine retinal pigment epithelial (RPE), mink lung epithelial (MLE), Lewis lung carcinoma (LLC), and EOMA cells and 3T3 fibroblasts were maintained in a 10% CO2 and 37° C. incubator. For the proliferation assays, cells were washed with PBS and were dispersed in a 0.05% solution of trypsin. Optimal conditions for the cell proliferation assays were established for each different cell type. Fetal calf serum (FCS) was used for the RPE, MLE, and LLC cells and BCS was used for the other cell types. A cell suspension (20,000 cells/ml for SMC, RPE, MLE; 15,000 cells/ml for 3T3; 10,000 cells/ml for LLC, EOMA) was made with DMEM+10% bovine serum+1% GPS, plated onto 24 well culture plates (0.5 ml/well), and incubated (37° C., 10% C02) for 24 hours. The media was replaced with 0.5 ml of DMEM+5% bovine serum+1% GPS and the test sample applied. After 72 hours, cells were dispersed in trypsin, resuspended in Hematall (Fisher Scientific, Pittsburgh, Pa.), and counted by Coulter counter."}, "[2]": {"tested_on": "Bovine retinal pigment epithelial cells", "assay": "Non-endothelial cell proliferation assay, RPE", "type": "cell-based", "conditions": "72 hours", "experimental": "as §1"}, "[3]": {"tested_on": "cells of non-endothelial origin", "assay": "Non-endothelial cell proliferation assays, stated for all lines together", "type": "cell-based", "conditions": "doses 1 log unit higher than those used to inhibit capillary endothelial cell proliferation", "experimental": "as §1"}, "[4]": {"tested_on": "Mink lung epithelial cells", "assay": "Non-endothelial cell proliferation assay, MLE", "type": "cell-based", "conditions": "72 hours", "experimental": "as §1"}, "[5]": {"tested_on": "bovine capillary endothelial cells", "assay": "Bovine capillary endothelial (BCE) cell proliferation assay, 72 hours, bFGF", "type": "cell-based", "experimental": "To further characterize the 20 kDa inhibitor, we tested it on several cell lines of endothelial and non-endothelial origin. For the BCE assay, bovine capillary endothelial cells were obtained and grown as previously described (Folkman et al., 1979). For the proliferation assay, cells were washed with PBS and dispersed in a 0.05% solution of trypsin. A cell suspension (25,000 cells/ml) was made with DMEM+10% BCS+1% GPS, plated onto gelatinized 24-well culture plates ([…]), and incubated (37° C., 10% CO2) for 24 hours. The media was replaced with 0.25 ml of DMEM+5% BCS+1% GPS and the test sample applied. After 20 minutes of incubation, media and bFGF were added to obtain a final volume of 0.5 ml of DMEM+5% BCS+1% GPS+1 ng/ml bFGF. After 72 hours, cells were dispersed in trypsin, resuspended in Hematall (Fisher Scientific, Pittsburgh, Pa.), and counted by Coulter counter."}, "3T3 fibroblasts": {"tested_on": "3T3 fibroblasts", "assay": "Non-endothelial cell proliferation assay, 3T3", "type": "cell-based", "conditions": "72 hours", "experimental": "as §1"}, "[6]": {"tested_on": "Lewis Lung carcinoma cells", "assay": "Non-endothelial cell proliferation assay, LLC", "type": "cell-based", "conditions": "72 hours", "experimental": "as §1"}, "[7]": {"tested_on": "EOMA hemangioendothelioma cells", "assay": "Non-endothelial cell proliferation assay, EOMA", "type": "cell-based, murine", "conditions": "72 hours", "experimental": "as §1"}, "[8]": {"tested_on": "Lewis lung carcinoma primary tumors", "assay": "Systemic therapy of Lewis lung carcinoma primary tumors", "type": "in vivo, mice", "conditions": "20 mg/kg/day, FIG. 11"}}}
{"molecule": "B1", "values": [{"measurement": "Effect on bovine aortic smooth muscle cell proliferation", "setting": "[1]", "result": "no effect"}, {"measurement": "Effect on bovine aortic smooth muscle cell proliferation", "setting": "[1]; listed as ENDOSTATIN", "result": "NON-INHIBITED"}, {"measurement": "Effect on bovine retinal pigment epithelial cell proliferation", "setting": "[2]", "result": "NON-INHIBITED"}, {"measurement": "Inhibition of proliferation of cells of non-endothelial origin", "setting": "[3]", "result": "No significant inhibition"}, {"measurement": "Effect on mink lung epithelial cell proliferation", "setting": "[4]", "result": "NON-INHIBITED"}, {"measurement": "Dose at which inhibition of endothelial cell proliferation was first observed", "setting": "[5]; 72 hour BCE assay", "result": 100, "unit": "ng/mL"}, {"measurement": "Dose giving maximal inhibition of endothelial cell proliferation", "setting": "[5]; 72 hour BCE assay", "result": "≥ 600", "unit": "ng/mL"}, {"measurement": "Effect on bovine capillary endothelial cell proliferation", "setting": "[5]; 72 hour proliferation assay, 1 ng/ml bFGF", "result": "INHIBITED"}, {"measurement": "Effect on 3T3 fibroblast proliferation", "setting": "3T3 fibroblasts", "result": "no effect"}, {"measurement": "Effect on 3T3 fibroblast proliferation", "setting": "3T3 fibroblasts; listed as ENDOSTATIN", "result": "NON-INHIBITED"}, {"measurement": "Effect on Lewis lung carcinoma cell proliferation", "setting": "[6]", "result": "no effect"}, {"measurement": "Effect on Lewis lung carcinoma cell proliferation", "setting": "[6]; listed as ENDOSTATIN", "result": "NON-INHIBITED"}, {"measurement": "Effect on EOMA hemangioendothelioma cell proliferation", "setting": "[7]", "result": "no effect"}, {"measurement": "Effect on EOMA hemangioendothelioma cell proliferation", "setting": "[7]; listed as ENDOSTATIN", "result": "NON-INHIBITED"}]}
{"molecule": "B2", "values": [{"measurement": "Inhibition of Lewis lung carcinoma tumor growth by human endostatin", "setting": "[8]", "result": "effectiveness"}]}
